Measurements from patent publication US20140087995A1 (published 2014).
Each block holds one binder with its values, some of them ahead of it. Numbered stars: 1 amine (or outer) side, 2 acyl side, 3 side chain; on linkers, the order of the positions; unused ones are H or OH. Bridge positions count the residues as written; N and C are the ends. Side chains are listed from the residue outwards. Ends that are not written are not given here. * marks the point of attachment. C20 diacid = O=C(O)CCCCCCCCCCCCCCCCCCC(=O)*; γGlu = O=C(O)[C@H](CCC(=O)[*:2])N[*:1]; AEEA = NCCOCCOCC(=O)O

Target: T1, human calcitonin receptor (human, UniProt P30988 25-474)
T1 sequence (looked up): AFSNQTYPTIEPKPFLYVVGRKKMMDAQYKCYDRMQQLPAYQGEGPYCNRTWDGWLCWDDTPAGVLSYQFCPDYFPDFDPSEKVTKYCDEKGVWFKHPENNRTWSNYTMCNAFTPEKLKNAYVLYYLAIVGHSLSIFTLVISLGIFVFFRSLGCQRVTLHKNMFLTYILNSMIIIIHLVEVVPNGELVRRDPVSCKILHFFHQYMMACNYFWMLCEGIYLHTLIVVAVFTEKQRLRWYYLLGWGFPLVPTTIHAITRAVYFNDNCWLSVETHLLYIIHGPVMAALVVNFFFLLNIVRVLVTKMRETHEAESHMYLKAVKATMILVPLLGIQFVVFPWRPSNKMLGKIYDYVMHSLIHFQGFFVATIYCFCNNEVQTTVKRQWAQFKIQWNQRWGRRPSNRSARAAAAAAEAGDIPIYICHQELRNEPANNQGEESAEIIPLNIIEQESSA
Test: cell-based or functional assay

B4: N^ε1-[2-[2-[2-[[2-[2-[2-[[(4S)-4-carboxy-4-(19-carboxynonadecanoylamino)butanoyl]amino]ethoxy]ethoxy]acetyl]amino]ethoxy]ethoxy]acetyl]-[Arg17,Pro21,Pro27,Glu35 … (peptide)
peptide: K([AEEA-AEEA-γGlu-C20 diacid])CNTATCATQRLANFLRHSSPNFGAIPSSTNVGSETY-NH2
modifications: disulfide 2-7; N-terminus assumed
SMILES: CC[C@H](C)[C@H](NC(=O)[C@H](C)NC(=O)CNC(=O)[C@H](Cc1ccccc1)NC(=O)[C@H](CC(N)=O)NC(=O)[C@@H]1CCCN1C(=O)[C@H](CO)NC(=O)[C@H](CO)NC(=O)[C@H](Cc1c[nH]cn1)NC(=O)[C@H](CCCNC(=N)N)NC(=O)[C@H](CC(C)C)NC(=O)[C@H](Cc1ccccc1)NC(=O)[C@H](CC(N)=O)NC(=O)[C@H](C)NC(=O)[C@H](CC(C)C)NC(=O)[C@H](CCCNC(=N)N)NC(=O)[C@H](CCC(N)=O)NC(=O)[C@@H](NC(=O)[C@H](C)NC(=O)[C@@H]1CSSC[C@H](NC(=O)[C@@H](N)CCCCNC(=O)COCCOCCNC(=O)COCCOCCNC(=O)CC[C@H](NC(=O)CCCCCCCCCCCCCCCCCCC(=O)O)C(=O)O)C(=O)N[C@@H](CC(N)=O)C(=O)N[C@@H]([C@@H](C)O)C(=O)N[C@@H](C)C(=O)N[C@@H]([C@@H](C)O)C(=O)N1)[C@@H](C)O)C(=O)N1CCC[C@H]1C(=O)N[C@@H](CO)C(=O)N[C@@H](CO)C(=O)N[C@H](C(=O)N[C@@H](CC(N)=O)C(=O)N[C@H](C(=O)NCC(=O)N[C@@H](CO)C(=O)N[C@@H](CCC(=O)O)C(=O)N[C@H](C(=O)N[C@@H](Cc1ccc(O)cc1)C(N)=O)[C@@H](C)O)C(C)C)[C@@H](C)O
notes: h-amylin derivative; disulfide bridge and C-terminal amide as told for human amylin; also called compound 25
hCTR funct. EC50: 10 nM

B5: N^ε1-[2-[2-[2-[[(4S)-4-carboxy-4-(19-carboxynonadecanoylamino)butanoyl]amino]ethoxy]ethoxy]acetyl]-[Arg17,Pro21,Pro27,Glu35]-h-amylin (peptide)
peptide: K([AEEA-γGlu-C20 diacid])CNTATCATQRLANFLRHSSPNFGAIPSSTNVGSETY-NH2
modifications: disulfide 2-7; N-terminus assumed
SMILES: CC[C@H](C)[C@H](NC(=O)[C@H](C)NC(=O)CNC(=O)[C@H](Cc1ccccc1)NC(=O)[C@H](CC(N)=O)NC(=O)[C@@H]1CCCN1C(=O)[C@H](CO)NC(=O)[C@H](CO)NC(=O)[C@H](Cc1c[nH]cn1)NC(=O)[C@H](CCCNC(=N)N)NC(=O)[C@H](CC(C)C)NC(=O)[C@H](Cc1ccccc1)NC(=O)[C@H](CC(N)=O)NC(=O)[C@H](C)NC(=O)[C@H](CC(C)C)NC(=O)[C@H](CCCNC(=N)N)NC(=O)[C@H](CCC(N)=O)NC(=O)[C@@H](NC(=O)[C@H](C)NC(=O)[C@@H]1CSSC[C@H](NC(=O)[C@@H](N)CCCCNC(=O)COCCOCCNC(=O)CC[C@H](NC(=O)CCCCCCCCCCCCCCCCCCC(=O)O)C(=O)O)C(=O)N[C@@H](CC(N)=O)C(=O)N[C@@H]([C@@H](C)O)C(=O)N[C@@H](C)C(=O)N[C@@H]([C@@H](C)O)C(=O)N1)[C@@H](C)O)C(=O)N1CCC[C@H]1C(=O)N[C@@H](CO)C(=O)N[C@@H](CO)C(=O)N[C@H](C(=O)N[C@@H](CC(N)=O)C(=O)N[C@H](C(=O)NCC(=O)N[C@@H](CO)C(=O)N[C@@H](CCC(=O)O)C(=O)N[C@H](C(=O)N[C@@H](Cc1ccc(O)cc1)C(N)=O)[C@@H](C)O)C(C)C)[C@@H](C)O
notes: h-amylin derivative; disulfide bridge and C-terminal amide as told for human amylin; also called compound 26
hCTR funct. EC50: 6.34 nM

B6: N^ε1-[2-[2-[2-[[(4S)-4-carboxy-4-(19-carboxynonadecanoylamino)butanoyl]amino]ethoxy]ethoxy]acetyl]-[Arg17,Pro21,Pro27,Pro31]-h-amylin (peptide)
peptide: K([AEEA-γGlu-C20 diacid])CNTATCATQRLANFLRHSSPNFGAIPSSTPVGSNTY-NH2
modifications: disulfide 2-7; N-terminus assumed
SMILES: CC[C@H](C)[C@H](NC(=O)[C@H](C)NC(=O)CNC(=O)[C@H](Cc1ccccc1)NC(=O)[C@H](CC(N)=O)NC(=O)[C@@H]1CCCN1C(=O)[C@H](CO)NC(=O)[C@H](CO)NC(=O)[C@H](Cc1c[nH]cn1)NC(=O)[C@H](CCCNC(=N)N)NC(=O)[C@H](CC(C)C)NC(=O)[C@H](Cc1ccccc1)NC(=O)[C@H](CC(N)=O)NC(=O)[C@H](C)NC(=O)[C@H](CC(C)C)NC(=O)[C@H](CCCNC(=N)N)NC(=O)[C@H](CCC(N)=O)NC(=O)[C@@H](NC(=O)[C@H](C)NC(=O)[C@@H]1CSSC[C@H](NC(=O)[C@@H](N)CCCCNC(=O)COCCOCCNC(=O)CC[C@H](NC(=O)CCCCCCCCCCCCCCCCCCC(=O)O)C(=O)O)C(=O)N[C@@H](CC(N)=O)C(=O)N[C@@H]([C@@H](C)O)C(=O)N[C@@H](C)C(=O)N[C@@H]([C@@H](C)O)C(=O)N1)[C@@H](C)O)C(=O)N1CCC[C@H]1C(=O)N[C@@H](CO)C(=O)N[C@@H](CO)C(=O)N[C@H](C(=O)N1CCC[C@H]1C(=O)N[C@H](C(=O)NCC(=O)N[C@@H](CO)C(=O)N[C@@H](CC(N)=O)C(=O)N[C@H](C(=O)N[C@@H](Cc1ccc(O)cc1)C(N)=O)[C@@H](C)O)C(C)C)[C@@H](C)O
notes: h-amylin derivative; disulfide bridge and C-terminal amide as told for human amylin; also called compound 49
hCTR funct. EC50: 2.39 nM

Further lines, results first:

hCTR funct. EC50: 0.717 nM
B1: N^α1-[(4S)-4-carboxy-4-(19-carboxynonadecanoylamino)butanoyl]-[Glu14,Arg17,Pro21,Pro27,Pro31]-h-amylin (peptide)
peptide: {C20 diacid-γGlu}-KCNTATCATQRLAEFLRHSSPNFGAIPSSTPVGSNTY-NH2
modifications: disulfide 2-7
SMILES: CC[C@H](C)[C@H](NC(=O)[C@H](C)NC(=O)CNC(=O)[C@H](Cc1ccccc1)NC(=O)[C@H](CC(N)=O)NC(=O)[C@@H]1CCCN1C(=O)[C@H](CO)NC(=O)[C@H](CO)NC(=O)[C@H](Cc1c[nH]cn1)NC(=O)[C@H](CCCNC(=N)N)NC(=O)[C@H](CC(C)C)NC(=O)[C@H](Cc1ccccc1)NC(=O)[C@H](CCC(=O)O)NC(=O)[C@H](C)NC(=O)[C@H](CC(C)C)NC(=O)[C@H](CCCNC(=N)N)NC(=O)[C@H](CCC(N)=O)NC(=O)[C@@H](NC(=O)[C@H](C)NC(=O)[C@@H]1CSSC[C@H](NC(=O)[C@H](CCCCN)NC(=O)CC[C@H](NC(=O)CCCCCCCCCCCCCCCCCCC(=O)O)C(=O)O)C(=O)N[C@@H](CC(N)=O)C(=O)N[C@@H]([C@@H](C)O)C(=O)N[C@@H](C)C(=O)N[C@@H]([C@@H](C)O)C(=O)N1)[C@@H](C)O)C(=O)N1CCC[C@H]1C(=O)N[C@@H](CO)C(=O)N[C@@H](CO)C(=O)N[C@H](C(=O)N1CCC[C@H]1C(=O)N[C@H](C(=O)NCC(=O)N[C@@H](CO)C(=O)N[C@@H](CC(N)=O)C(=O)N[C@H](C(=O)N[C@@H](Cc1ccc(O)cc1)C(N)=O)[C@@H](C)O)C(C)C)[C@@H](C)O
notes: h-amylin derivative; disulfide bridge and C-terminal amide as told for human amylin; also called compound 31

hCTR funct. EC50: 0.327 nM
B2: N^α1-[(4S)-4-carboxy-4-(19-carboxynonadecanoylamino)butanoyl]-[Glu14,Arg17,Pro21,Pro27,Pro34]-h-amylin (peptide)
peptide: {C20 diacid-γGlu}-KCNTATCATQRLAEFLRHSSPNFGAIPSSTNVGPNTY-NH2
modifications: disulfide 2-7
SMILES: CC[C@H](C)[C@H](NC(=O)[C@H](C)NC(=O)CNC(=O)[C@H](Cc1ccccc1)NC(=O)[C@H](CC(N)=O)NC(=O)[C@@H]1CCCN1C(=O)[C@H](CO)NC(=O)[C@H](CO)NC(=O)[C@H](Cc1c[nH]cn1)NC(=O)[C@H](CCCNC(=N)N)NC(=O)[C@H](CC(C)C)NC(=O)[C@H](Cc1ccccc1)NC(=O)[C@H](CCC(=O)O)NC(=O)[C@H](C)NC(=O)[C@H](CC(C)C)NC(=O)[C@H](CCCNC(=N)N)NC(=O)[C@H](CCC(N)=O)NC(=O)[C@@H](NC(=O)[C@H](C)NC(=O)[C@@H]1CSSC[C@H](NC(=O)[C@H](CCCCN)NC(=O)CC[C@H](NC(=O)CCCCCCCCCCCCCCCCCCC(=O)O)C(=O)O)C(=O)N[C@@H](CC(N)=O)C(=O)N[C@@H]([C@@H](C)O)C(=O)N[C@@H](C)C(=O)N[C@@H]([C@@H](C)O)C(=O)N1)[C@@H](C)O)C(=O)N1CCC[C@H]1C(=O)N[C@@H](CO)C(=O)N[C@@H](CO)C(=O)N[C@H](C(=O)N[C@@H](CC(N)=O)C(=O)N[C@H](C(=O)NCC(=O)N1CCC[C@H]1C(=O)N[C@@H](CC(N)=O)C(=O)N[C@H](C(=O)N[C@@H](Cc1ccc(O)cc1)C(N)=O)[C@@H](C)O)C(C)C)[C@@H](C)O
notes: h-amylin derivative; disulfide bridge and C-terminal amide as told for human amylin; also called compound 32

hCTR funct. EC50: 1.68 nM
B3: N^α1-[(4S)-4-carboxy-4-(19-carboxynonadecanoylamino)butanoyl]-[His14,Arg17,Pro21,Pro27,Glu35]-h-amylin (peptide)
peptide: {C20 diacid-γGlu}-KCNTATCATQRLAHFLRHSSPNFGAIPSSTNVGSETY-NH2
modifications: disulfide 2-7
SMILES: CC[C@H](C)[C@H](NC(=O)[C@H](C)NC(=O)CNC(=O)[C@H](Cc1ccccc1)NC(=O)[C@H](CC(N)=O)NC(=O)[C@@H]1CCCN1C(=O)[C@H](CO)NC(=O)[C@H](CO)NC(=O)[C@H](Cc1c[nH]cn1)NC(=O)[C@H](CCCNC(=N)N)NC(=O)[C@H](CC(C)C)NC(=O)[C@H](Cc1ccccc1)NC(=O)[C@H](Cc1c[nH]cn1)NC(=O)[C@H](C)NC(=O)[C@H](CC(C)C)NC(=O)[C@H](CCCNC(=N)N)NC(=O)[C@H](CCC(N)=O)NC(=O)[C@@H](NC(=O)[C@H](C)NC(=O)[C@@H]1CSSC[C@H](NC(=O)[C@H](CCCCN)NC(=O)CC[C@H](NC(=O)CCCCCCCCCCCCCCCCCCC(=O)O)C(=O)O)C(=O)N[C@@H](CC(N)=O)C(=O)N[C@@H]([C@@H](C)O)C(=O)N[C@@H](C)C(=O)N[C@@H]([C@@H](C)O)C(=O)N1)[C@@H](C)O)C(=O)N1CCC[C@H]1C(=O)N[C@@H](CO)C(=O)N[C@@H](CO)C(=O)N[C@H](C(=O)N[C@@H](CC(N)=O)C(=O)N[C@H](C(=O)NCC(=O)N[C@@H](CO)C(=O)N[C@@H](CCC(=O)O)C(=O)N[C@H](C(=O)N[C@@H](Cc1ccc(O)cc1)C(N)=O)[C@@H](C)O)C(C)C)[C@@H](C)O
notes: h-amylin derivative; disulfide bridge and C-terminal amide as told for human amylin; also called compound 30
